Measured values from ChEMBL document CHEMBL2074368, “Kinetic analysis of calcein and calcein-acetoxymethylester efflux mediated by the multidrug resistance protein and P-glycoprotein” (Biochemistry, 1998).

Legend:
[1] = substrate: CC(=O)OCOC(=O)CN(CC(=O)OCOC(C)=O)Cc1c(OC(C)=O)ccc2c1Oc1c(ccc(OC(C)=O)c1CN(CC(=O)OCOC(C)=O)CC(=O)OCOC(C)=O)C21OC(=O)c2ccccc21; assay: (§1) TP_TRANSPORTER: efflux in GLC4/ADR cells; assay type: functional, cell-based, GLC-4/ADR
[2] = substrate: O=C(O)CN(CC(=O)O)Cc1cc2c(cc1O)Oc1cc(O)c(CN(CC(=O)O)CC(=O)O)cc1C21OC(=O)c2ccccc21; assay: as §1; assay type: functional, cell-based, GLC-4/ADR

B1: Multidrug resistance-associated protein 1 (Homo sapiens) (protein)
chain: MALRGFCSADGSDPLWDWNVTWNTSNPDFTKCFQNTVLVWVPCFYLWACFPFYFLYLSRHDRGYIQMTPLNKTKTALGFLLWIVCWADLFYSFWERSRGIFLAPVFLVSPTLLGITMLLATFLIQLERRKGVQSSGIMLTFWLVALVCALAILRSKIMTALKEDAQVDLFRDITFYVYFSLLLIQLVLSCFSDRSPLFSETIHDPNPCPESSASFLSRITFWWITGLIVRGYRQPLEGSDLWSLNKEDTSEQVVPVLVKNWKKECAKTRKQPVKVVYSSKDPAQPKESSKVDANEEVEALIVKSPQKEWNPSLFKVLYKTFGPYFLMSFFFKAIHDLMMFSGPQILKLLIKFVNDTKAPDWQGYFYTVLLFVTACLQTLVLHQYFHICFVSGMRIKTAVIGAVYRKALVITNSARKSSTVGEIVNLMSVDAQRFMDLATYINMIWSAPLQVILALYLLWLNLGPSVLAGVAVMVLMVPVNAVMAMKTKTYQVAHMKSKDNRIKLMNEILNGIKVLKLYAWELAFKDKVLAIRQEELKVLKKSAYLSAVGTFTWVCTPFLVALCTFAVYVTIDENNILDAQTAFVSLALFNILRFPLNILPMVISSIVQASVSLKRLRIFLSHEELEPDSIERRPVKDGGGTNSITVRNATFTWARSDPPTLNGITFSIPEGALVAVVGQVGCGKSSLLSALLAEMDKVEGHVAIKGSVAYVPQQAWIQNDSLRENILFGCQLEEPYYRSVIQACALLPDLEILPSGDRTEIGEKGVNLSGGQKQRVSLARAVYSNADIYLFDDPLSAVDAHVGKHIFENVIGPKGMLKNKTRILVTHSMSYLPQVDVIIVMSGGKISEMGSYQELLARDGAFAEFLRTYASTEQEQDAEENGVTGVSGPGKEAKQMENGMLVTDSAGKQLQRQLSSSSSYSGDISRHHNSTAELQKAEAKKEETWKLMEADKAQTGQVKLSVYWDYMKAIGLFISFLSIFLFMCNHVSALASNYWLSLWTDDPIVNGTQEHTKVRLSVYGALGISQGIAVFGYSMAVSIGGILASRCLHVDLLHSILRSPMSFFERTPSGNLVNRFSKELDTVDSMIPEVIKMFMGSLFNVIGACIVILLATPIAAIIIPPLGLIYFFVQRFYVASSRQLKRLESVSRSPVYSHFNETLLGVSVIRAFEEQERFIHQSDLKVDENQKAYYPSIVANRWLAVRLECVGNCIVLFAALFAVISRHSLSAGLVGLSVSYSLQVTTYLNWLVRMSSEMETNIVAVERLKEYSETEKEAPWQIQETAPPSSWPQVGRVEFRNYCLRYREDLDFVLRHINVTINGGEKVGIVGRTGAGKSSLTLGLFRINESAEGEIIIDGINIAKIGLHDLRFKITIIPQDPVLFSGSLRMNLDPFSQYSDEEVWTSLELAHLKDFVSALPDKLDHECAEGGENLSVGQRQLVCLARALLRKTKILVLDEATAAVDLETDDLIQSTIRTQFEDCTVLTIAHRLNTIMDYTRVIVLDKGEIQEYGAPSDLLQQRGLFYSMAKDAGLV
With B1 the Km [1] was 0.05 µM and the Km [2] was 268 µM.
